Common to all, as to experiment: pull-down; in vitro; GST-tagged proteins bound to glutathione resin as bait, MBP-tagged proteins incubated with them; about 2 ug of each protein; immunoblot with anti-myc or anti-MBP
Common to all, as to conditions: both partners purified
(In general: In western blotting, separated proteins are transferred to a membrane and probed.)

For one test, the target named is T1, GST-UBP12 (full-length) (Arabidopsis thaliana, UniProt Q9FPT1 1-1116).
T1 construct: UBP12 (ubiquitin-specific protease 12), Arabidopsis thaliana, At5g06600; full length (1-1116 by the limits printed for its N and C derivatives); not shown: GST, N-terminal, kept
T1 sequence (looked up): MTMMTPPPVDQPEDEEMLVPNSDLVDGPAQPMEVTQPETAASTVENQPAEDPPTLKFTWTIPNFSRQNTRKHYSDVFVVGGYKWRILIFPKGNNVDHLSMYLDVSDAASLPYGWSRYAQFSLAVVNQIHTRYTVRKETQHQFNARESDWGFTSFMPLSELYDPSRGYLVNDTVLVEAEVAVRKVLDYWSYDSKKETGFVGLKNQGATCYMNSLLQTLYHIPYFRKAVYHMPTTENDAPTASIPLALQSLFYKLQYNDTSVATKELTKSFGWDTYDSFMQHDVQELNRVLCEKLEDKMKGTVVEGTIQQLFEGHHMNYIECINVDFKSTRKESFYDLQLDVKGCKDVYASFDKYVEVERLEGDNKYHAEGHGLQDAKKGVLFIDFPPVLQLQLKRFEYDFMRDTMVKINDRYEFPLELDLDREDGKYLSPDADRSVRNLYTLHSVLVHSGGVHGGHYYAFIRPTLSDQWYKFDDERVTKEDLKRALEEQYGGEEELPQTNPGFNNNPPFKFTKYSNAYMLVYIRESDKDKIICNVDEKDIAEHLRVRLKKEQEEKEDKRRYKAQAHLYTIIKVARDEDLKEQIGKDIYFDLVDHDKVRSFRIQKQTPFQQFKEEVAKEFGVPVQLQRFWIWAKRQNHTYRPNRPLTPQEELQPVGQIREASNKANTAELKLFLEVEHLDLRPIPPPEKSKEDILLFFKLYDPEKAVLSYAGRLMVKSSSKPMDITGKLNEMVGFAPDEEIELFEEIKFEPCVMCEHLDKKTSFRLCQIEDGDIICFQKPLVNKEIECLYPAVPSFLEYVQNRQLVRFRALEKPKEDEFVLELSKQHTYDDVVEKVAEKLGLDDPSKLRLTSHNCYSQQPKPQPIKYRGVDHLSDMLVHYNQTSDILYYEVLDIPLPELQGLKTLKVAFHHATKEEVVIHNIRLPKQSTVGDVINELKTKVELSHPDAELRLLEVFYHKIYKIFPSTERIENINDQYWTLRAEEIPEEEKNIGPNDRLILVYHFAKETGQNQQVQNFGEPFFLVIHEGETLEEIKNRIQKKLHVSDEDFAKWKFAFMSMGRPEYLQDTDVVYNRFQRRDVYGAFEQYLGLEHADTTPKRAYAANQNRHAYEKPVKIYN

The target of the next test is T2, GST-UBP13 (full-length) (Arabidopsis thaliana, UniProt Q84WU2 1-1115).
T2 construct: UBP13 (ubiquitin-specific protease 13), Arabidopsis thaliana, At3g11910; full length
T2 sequence (looked up): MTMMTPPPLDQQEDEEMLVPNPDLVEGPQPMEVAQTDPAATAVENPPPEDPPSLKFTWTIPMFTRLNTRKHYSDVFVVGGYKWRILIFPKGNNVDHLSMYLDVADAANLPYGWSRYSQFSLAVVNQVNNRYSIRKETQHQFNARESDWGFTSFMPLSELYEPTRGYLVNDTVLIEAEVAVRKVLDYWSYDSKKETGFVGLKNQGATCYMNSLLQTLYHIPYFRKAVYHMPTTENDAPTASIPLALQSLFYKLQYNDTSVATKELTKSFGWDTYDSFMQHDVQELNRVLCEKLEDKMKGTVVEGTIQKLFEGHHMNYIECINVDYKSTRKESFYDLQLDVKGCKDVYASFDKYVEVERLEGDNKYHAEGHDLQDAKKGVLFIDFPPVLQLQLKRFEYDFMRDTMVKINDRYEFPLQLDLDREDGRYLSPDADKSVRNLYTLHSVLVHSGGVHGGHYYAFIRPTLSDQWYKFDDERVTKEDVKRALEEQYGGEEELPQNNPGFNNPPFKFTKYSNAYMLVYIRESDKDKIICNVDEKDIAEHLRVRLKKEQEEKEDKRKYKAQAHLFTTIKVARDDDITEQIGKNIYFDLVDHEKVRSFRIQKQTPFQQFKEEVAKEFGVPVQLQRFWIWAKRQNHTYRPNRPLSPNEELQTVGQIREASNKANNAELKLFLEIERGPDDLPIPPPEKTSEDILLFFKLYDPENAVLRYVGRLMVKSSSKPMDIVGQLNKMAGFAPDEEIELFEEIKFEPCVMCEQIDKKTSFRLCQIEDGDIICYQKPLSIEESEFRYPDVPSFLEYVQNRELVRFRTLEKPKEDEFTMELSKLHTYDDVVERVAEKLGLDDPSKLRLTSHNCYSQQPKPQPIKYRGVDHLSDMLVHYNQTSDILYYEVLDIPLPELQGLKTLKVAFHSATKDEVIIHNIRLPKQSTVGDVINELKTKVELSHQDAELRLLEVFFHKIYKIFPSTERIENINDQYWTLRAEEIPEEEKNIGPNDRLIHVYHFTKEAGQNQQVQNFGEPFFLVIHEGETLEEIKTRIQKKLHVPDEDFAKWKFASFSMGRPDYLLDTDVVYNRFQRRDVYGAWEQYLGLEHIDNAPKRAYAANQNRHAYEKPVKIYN

For test [1], the target named is T3, GST-UBP12-N (N-terminal region of UBP12, amino acids 1–541) (Arabidopsis thaliana, UniProt Q9FPT1 1-541).
T3 construct: UBP12, Arabidopsis thaliana, At5g06600; N-terminal region, amino acids 1-541, with the MATH domain and the cysteine/histidine-containing catalytic domain
T3 sequence (looked up): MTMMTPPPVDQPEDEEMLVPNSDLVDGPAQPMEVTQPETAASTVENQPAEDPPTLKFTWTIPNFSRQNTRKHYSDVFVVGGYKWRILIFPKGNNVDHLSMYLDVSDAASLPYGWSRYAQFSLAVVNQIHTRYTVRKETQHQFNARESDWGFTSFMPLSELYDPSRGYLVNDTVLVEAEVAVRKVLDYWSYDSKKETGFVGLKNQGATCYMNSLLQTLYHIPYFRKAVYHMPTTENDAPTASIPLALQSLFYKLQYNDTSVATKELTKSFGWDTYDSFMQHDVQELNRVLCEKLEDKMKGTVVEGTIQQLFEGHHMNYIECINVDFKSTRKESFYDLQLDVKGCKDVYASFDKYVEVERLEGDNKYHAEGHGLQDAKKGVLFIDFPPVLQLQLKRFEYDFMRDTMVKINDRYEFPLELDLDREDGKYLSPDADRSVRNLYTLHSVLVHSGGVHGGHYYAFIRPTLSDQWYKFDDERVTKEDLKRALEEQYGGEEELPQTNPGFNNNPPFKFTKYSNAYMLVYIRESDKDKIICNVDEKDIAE

B1: MBP-BZR1-myc (BRASSINAZOLE RESISTANT1) (natural protein, Arabidopsis thaliana, UniProt Q8S307 1-336, looked up)
chain: MTSDGATSTSAAAAAAAAAAARRKPSWRERENNRRRERRRRAVAAKIYTGLRAQGDYNLPKHCDNNEVLKALCVEAGWVVEEDGTTYRKGCKPLPGEIAGTSSRVTPYSSQNQSPLSSAFQSPIPSYQVSPSSSSFPSPSRGEPNNNMSSTFFPFLRNGGIPSSLPSLRISNSCPVTPPVSSPTSKNPKPLPNWESIAKQSMAIAKQSMASFNYPFYAVSAPASPTHRHQFHTPATIPECDESDSSTVDSGHWISFQKFAQQQPFSASMVPTSPTFNLVKPAPQQMSPNTAAFQEIGQSSEFKFENSQVKPWEGERIHDVGMEDLELTLGNGKARG
notes: BZR1 (BRASSINAZOLE RESISTANT1), Arabidopsis thaliana, At1g75080; source: E. coli BL21 (DE3) pLysS, purified (amylose resin); not shown: MBP, N-terminal, kept; 6x myc, C-terminal, kept
For the molecule B1, the binding result with GST-UBP12 (full-length) and in the test with GST-UBP13 (full-length) was “binds” in each case.

B2: MBP-BES1-myc (BRI1-EMS-SUPPRESSOR 1) (natural protein, Arabidopsis thaliana, UniProt Q9LN63 1-335, looked up)
chain: MTSDGATSTSAAAAAAAMATRRKPSWRERENNRRRERRRRAVAAKIYTGLRAQGNYNLPKHCDNNEVLKALCSEAGWVVEEDGTTYRKGHKPLPGDMAGSSSRATPYSSHNQSPLSSTFDSPILSYQVSPSSSSFPSPSRVGDPHNISTIFPFLRNGGIPSSLPPLRISNSAPVTPPVSSPTSRNPKPLPTWESFTKQSMSMAAKQSMTSLNYPFYAVSAPASPTHHRQFHAPATIPECDESDSSTVDSGHWISFQKFAQQQPFSASMVPTSPTFNLVKPAPQQLSPNTAAIQEIGQSSEFKFENSQVKPWEGERIHDVAMEDLELTLGNGKAHS
notes: BES1 (BRI1-EMS-SUPPRESSOR 1), Arabidopsis thaliana, At1g19350; source: E. coli BL21 (DE3) pLysS, purified (amylose resin); not shown: MBP, N-terminal, kept; 6x myc, C-terminal, kept
Regarding B2, the binding result (in test [1]; with GST-UBP12 (full-length); with GST-UBP13 (full-length)) was “binds” in each case.

For the origin of these results see article PMC9483116, “Deubiquitination of BES1 by UBP12/UBP13 promotes brassinosteroid signaling and plant growth” (Plant Communications, 2022).
